Experimental data: the supplement of paper PMC9170038

Tested on: MS2 coat protein
Experiment: apparent KD of MS2 coat protein; designed switch direction (-1 OFF switch, 1 ON switch): -1; higher = weaker reporter binding
In short: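 For each design, the apparent KD is the median over clusters of curves fitted to normalised cluster fluorescence. Clusters held RNA switches with common flanks, transcribed on Illumina chips by stalled E. coli RNA polymerase. These were titrated with SNAP-549-labelled MS2 coat protein, doubling from 0.7 or 1.5 nM to 3 µM, without input, with 200 uM small-molecule ligand, or with an oligonucleotide input.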

[1] = input ligand: microRNA oligo, concentration not stated
[2] = Eterna round: R95, input ligand: FMN 200 uM
[3] = Eterna round: R95, input ligand: microRNA oligo, concentration not stated
[4] = Eterna round: R95, input ligand: none

Sequence	apparent KD of MS2 coat protein (input ligand: FMN 200 uM) [nM]	apparent KD of MS2 coat protein [1] [nM]	apparent KD of MS2 coat protein (input ligand: none) [nM]	apparent KD of MS2 coat protein [2] [nM]	apparent KD of MS2 coat protein [3] [nM]	apparent KD of MS2 coat protein [4] [nM]
ACGAUGUUUGGAGGAUAUACAUGAGGAUCACCCAUGUGCGACCGAGUCCGCACUUCACCUCAGUGGUAGAAGGCCGAACAUCGA [Eternabot solution 12] (Eterna round: R96, puzzle: Exclusion NG 2)	97.9	545	255			
UAAGAUUACCGAGGAUAUGCUGGUUUAUCUCAAGCAGAAGGCGGACUCAACAUGAGGAUCACCCAUGUAAGACGGGUACUAGAU [Ex NG1 #12] (Eterna round: R96, puzzle: Exclusion NG 1)	61.5	69.1	97.1			
UUUAAUUUUUUUUUUUUACAAGCUUUUUGCUCGUCUUAUACAUGAGGAUCACCCAUGUGAGUGGGAAAUGAAUUAUC [JMF 100] (puzzle: Sensor v3, turn-off variant 2)				99	218	111
ACGAAAGCAAGCAAGUGAAACAUGAGGAUCACCCAUGUCCUCAUUUGCUCGUCUUAUAAAAGCUAUCGAAAGAUAGC [Mat - Sensor v3 - turn-off var 1 - Eli Mod - D47] (puzzle: Sensor v3, turn-off variant 1)				11.9	157	13.2
GCACGCAGUGUUAGGAUAUUAAUGGCACCGCAACGUAAGAAGGAACAUGAGGAUCACCCAUGUGUGCUAGAGAA [Eternabot (Original) Solution 14] (Eterna round: R97, puzzle: Brourd's mod of Exclusion 4)	30.1		29.5			
GGAGCGGAAGGAUAUGCUGCGGGAUUGCAUGGAAAGAAAAUACAUGAGGAUCACCCAUGUAGAAGGUCCGUGAA [Uslequ] (puzzle: Exclusion 2)					24.8	
AUAAUGUGAGGAUAUCAGUAAGAAUGCCUCGGCAUUCUUACUGAGAAGGCACAUGAGGAUCACCCAUGUGAUUA [E4/4-B2] (Eterna round: R97, puzzle: Exclusion 4)	596		182			
CAGUACUGAGGAUAUACAUGAGGAUCACCCAUGUAUCCUAGCUAGGAAACUAGCAAAAGUAGAAGGCAGUACUG [Ex3: 819] (Eterna round: R96, puzzle: Exclusion 3)		12.4				
UUGAAGUCAUCAGGAUAUAGUAUAAAAGACAUAUAUUUUUUCAAACAUGAGGAUCACCCAUGUCGCUAGAAGGGAUUAUAGAUU [JR_ExcNG2_Sub081] (Eterna round: R96, puzzle: Exclusion NG 2)		34.7				
CCUCGACAUGAGGAUCACCCAUGUCAGGAUAUUGUGUCUCGGGUUUUUUACCGAAAGGCGAGAAGGGAUGUGUG [LRO-Excl1-12] (puzzle: Exclusion 1)					13.9	
UACAUGAGGAUCACCCAUGUUUUGUCGUGUAUGGUAUUUAUCUAGGAUAUCACUUUAUUUAUUUAUGAGAAGGAGAAUAUUAAU [JMF's solution 8] (Eterna round: R96, puzzle: Exclusion NG 3)	34.2	27.1	37.9			
GAUUAUGCGAGCUUUAGGGACAUGAGGAUCACCCAUGUUCGUCUUAUUAGUCUGGAUACACUGACAUACCUAAAUCU [JMF 59] (puzzle: Sensor v3, turn-off variant 1)				14.8	20.9	16.4
AAGUUGCGAGGAUAUCGUAAGAUGGACAUGAGGAUCACCCAUGUGGUGCUUUUUUAUUGGCGAGAAGGCGCAUAAA [Zaiseren] (puzzle: Exclusion 5)				134	166	164
AUGGGUCCUCACGGAGCUACAUGAGGAUCACCCAUGUGUAUUGAGGAUAUCCACUGCCGACGGCUGGAGAAGGCAGUGUACUGU [Ex NG3 #93] (Eterna round: R96, puzzle: Exclusion NG 3)	97.8	61.5	109			
